± gives the standard deviation of the averaged measurements.

The text below walks through data of the supplement of paper PMC10724198.
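Note: PSI is a weighted mean of sequencing reads over stability bins, variants kept only with over 10 reads, mCherry proximal and sfGFP distal, peptide attached via GGGS linker.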

For the data set, the system named is Saccharomyces cerevisiae. Nature of the data set: protein stability index of tFT-peptide fusion (C-terminal peptide) (PSI (0-1 scale)); higher = more stable (slower turnover). The conditions noted are these: genetic background: wild type; temperature: 30 C. Here is the method: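 Multiplexed protein stability (MPS) profiling in S. cerevisiae. Random 12-aa peptides (tFT-X12 library) are fused to the C-terminus of a sfGFP-mCherry tandem fluorescent timer, after mCherry and a GGGS linker. Cells are FACS-sorted into 8 mCherry/sfGFP bins and deep-sequenced. The protein stability index (PSI) is the read-weighted bin average, scaled from 0 (unstable) to 1 (stable). Only peptides with >10 reads are reported; cells were grown at 30 °C in SC-His with glucose.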
GGEVPFRLCRLW displayed a protein stability index of 0.6914 ± 0.0019.
Take GGFFLFAVGVGN: the protein stability index was found to be 0.627 ± 0.013.
As to GGGAGGGGVVVR, the protein stability index came to 0.643 ± 0.016.
Turning to GGGARCGGGCRV, the protein stability index was 0.684 ± 0.03.
The result for GGGARGDCLMGS reads 0.6809 ± 0.0018.
The result for GGGARGGGGWGG reads 0.631 ± 0.097.
As for GGGCRASSLFPE, the protein stability index was determined as 0.6644 ± 0.0058.
Turning to GGGEGREEQEGR, the protein stability index is 0.701 ± 0.019.
Turning to GGGEGVPDSASE, the protein stability index was determined as 0.668 ± 0.021.
As to GGGGAGGGGGGG, the protein stability index was 0.6739 ± 0.0021.
In the case of GGGGATSGRLSR it was 0.705 ± 0.023.
GGGGCVMGVGRV yielded a protein stability index of 0.668 ± 0.0092.
For GGGGGAGGDGRG, the protein stability index was 0.66 ± 0.022.
As to GGGGGAKGEGVR, the protein stability index is 0.733 ± 0.1.
For the sequence GGGGGGGGAGGV, the protein stability index was found to be 0.6985 ± 0.0011.
GGGGGGGGAWSG showed a protein stability index of 0.723 ± 0.037.
GGGGGGVRWASG came in with a protein stability index of 0.707 ± 0.051.
GGGGGSMDLRDR came in with a protein stability index of 0.697 ± 0.0076.
The result for GGGGGVWWVGRV reads 0.678 ± 0.074; that for GGGGLFGCWVCG, 0.654 ± 0.011.
With GGGGMVVGEVVG, the protein stability index amounted to 0.685 ± 0.038.
In the case of GGGGPGLEARSL it was 0.618 ± 0.0078; in that of GGGGRGGVVRSG, 0.634 ± 0.095; in that of GGGGRGMWGIFG, 0.676 ± 0.045.
In the case of GGGGSCWYGNRL it was 0.6353 ± 0.0027; in that of GGGGVFGVVRVG, 0.631 ± 0.037; in that of GGGGWGRGKGCW, 0.719 ± 0.0079.
Regarding GGGIERYCWLQI, the protein stability index was determined as 0.708 ± 0.067.
GGGKRGDMSVVV returned a protein stability index of 0.689 ± 0.0092.
GGGKRSERGGEP displayed a protein stability index of 0.672 ± 0.12.
GGGLGRRLLGGR returned a protein stability index of 0.69 ± 0.078.
In turn, GGGRALGRVWPG showed a protein stability index of 0.684 ± 0.017.
In the case of GGGRGAGIPVIF, the protein stability index came to 0.623 ± 0.073.
The result for GGGRGDWALRGG reads 0.751 ± 0.011; that for GGGRGVAVVWVV, 0.61 ± 0.023; that for GGGRRVCGVLAV, 0.619 ± 0.013.
Turning to GGGSGVLEWGSV, the protein stability index is 0.714 ± 0.12.
On to GGGVEAIEVSQG, for which the protein stability index is 0.678 ± 0.041.
The result for GGGVGRLAGLLG reads 0.693 ± 0.046.
Consider GGGVRWGVGRGG, for which the protein stability index worked out at 0.652 ± 0.025.
The sequence GGGVSCGRWGTG gave a protein stability index of 0.639 ± 0.086.
For the sequence GGGVSFWLGGVA, the protein stability index was determined as 0.633 ± 0.045.
The result for GGGVVGPGGVLK reads 0.705 ± 0.11; that for GGGWGAGVRLTW, 0.757 ± 0.021.
The result for GGGWGGGGGVWG reads 0.686 ± 0.047; that for GGGWRLIVLGWW, 0.585 ± 0.087; that for GGHSVRCGGGAL, 0.758 ± 0.037.
The result for GGILNLCVTSLC reads 0.617 ± 0.022; that for GGKTRGVRMCGG, 0.648 ± 0.014.
Turning to GGLGDIHSDDVE, the protein stability index was 0.681 ± 0.019.
With GGLGGGRRGVGR, the protein stability index was determined as 0.664 ± 0.012.
As to GGLIWRHGGGRG, the protein stability index was 0.688 ± 0.023.
In the case of GGLLGAGGGCGV it was 0.681 ± 0.046; in that of GGLVGACTRLSG, 0.657 ± 0.035.
The sequence GGPGGGRPGPRA had a protein stability index of 0.6972 ± 0.0026.
In the case of GGPGGGVSGWEG, the protein stability index worked out at 0.704 ± 0.12.
In the case of GGPVDGSVDRGR it was 0.627 ± 0.017; in that of GGRALVGGRRHG, 0.756 ± 0.14.
In turn, GGRAQVGGWWGR gave a protein stability index of 0.774 ± 0.031.
GGRGAGGGVELR gave a protein stability index of 0.661 ± 0.075.
Regarding GGRGAGRGSVGG, the protein stability index turned out to be 0.679 ± 0.034.
GGRGRVGEMGGR yielded a protein stability index of 0.677 ± 0.015.
GGRHARRGRRRR returned a protein stability index of 0.75 ± 0.11.
Consider GGRRVVKSWVLG, for which the protein stability index stood at 0.66 ± 0.014.
As for GGSGAGRRGGGR, the protein stability index was 0.72 ± 0.03.
GGSGGRVGVAGG registered a protein stability index of 0.645 ± 0.062.
On to GGSRGWGAAAGR, for which the protein stability index was determined as 0.766 ± 0.065.
Consider GGSRPPPFRPPA, for which the protein stability index was found to be 0.724 ± 0.014.
Regarding GGSRVSGVVGKG, the protein stability index was found to be 0.608 ± 0.0076.
Sequence GGSVGSGSRLVV registered a protein stability index of 0.715 ± 0.038.
GGTGGWVVNRGV registered a protein stability index of 0.706 ± 0.079.
In the case of GGTRSDGYTQSR, the protein stability index was 0.707 ± 0.017.
GGTSVLPPAVLF yielded a protein stability index of 0.762 ± 0.004.
Sequence GGVCCGGLRGVS gave a protein stability index of 0.7398 ± 0.0039.
The sequence GGVCVGLWGGRG registered a protein stability index of 0.709 ± 0.043.
In turn, GGVDNWKAIRGI registered a protein stability index of 0.737 ± 0.043.
The result for GGVFCGGGALWA reads 0.614 ± 0.014.
